# Like-named read-outs stand apart in the source and are kept apart here.
# B1: human eIF4GII residues 551–745 (domain or fragment, UniProt O43432 551-745, looked up)
# chain: GFHPERDPSDLKKVKAVEENGEEAEPVRNGAESVSEGEGIDANSGSTDSSGDGVTFPFKPESWKPTDTEGKKQYDREFLLDFQFMPACIQKPEGLPPISDVVLDKINQPKLPMRTLDPRILPRGPDFTPAFADFGRQTPGGRGVPLLNVGSRRSQPGQRREPRKIITVSVKEDVHLKKAENAWKPSQKRDSQADD
# Legend:
# [1] = biological target: human eIF4GII residues 551–745 (human) (UniProt O43432); assay: ITC; MicroCal ITC microcalorimeter; the ligand titrated into the protein in the cell (cell about 10× lower than titrant); 25°C; 20 mM Hepes/KOH pH 7.4, 150 mM KCl, 1 mM EDTA; three experiments
# [2] = biological target: eIF4GII_(551–745)/eIF4E complex (human | murine) (UniProt O43432); assay: as above
# [3] = biological target: eIF4GII_(551–745)/eIF4E complex (human | murine) (UniProt O43432); assay: SEC-MALS; Superdex 200 10/300 in assay buffer, miniDAWN light scattering instrument, 100 µg sample
# [4] = biological target: recombinant full-length murine eIF4E (murine) (UniProt P63073); assay: SEC-MALS; static light scattering after 10 min of complex formation
# recombinant full-length murine eIF4E (murine), sequence (P63073 whole entry): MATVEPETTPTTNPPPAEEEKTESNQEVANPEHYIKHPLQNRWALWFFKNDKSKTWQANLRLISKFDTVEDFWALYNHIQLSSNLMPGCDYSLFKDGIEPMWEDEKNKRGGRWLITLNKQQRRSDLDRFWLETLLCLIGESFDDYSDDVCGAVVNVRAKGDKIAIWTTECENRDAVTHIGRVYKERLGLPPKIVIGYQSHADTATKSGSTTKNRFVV
# [5] = biological target: recombinant full-length murine eIF4E (murine) (UniProt P63073); assay: SEC-MALS; static light scattering on eIF4E/2A^proC106S complexes formed overnight
# [6] = biological target: recombinant full-length murine eIF4E (murine) (UniProt P63073); assay: ITC; MicroCal ITC microcalorimeter; the ligand titrated into the protein in the cell (cell about 10× lower than titrant); 25°C; 20 mM Hepes/KOH pH 7.4, 150 mM KCl, 1 mM EDTA; three experiments
# [7] = biological target: recombinant full-length murine eIF4E (murine) (UniProt P63073); assay: as above; remark: listed apart in the source
# [8] = biological target: HRV2 2A^proC106S (human rhinovirus 2); assay: SEC-MALS; Superdex 200 10/300 in assay buffer, miniDAWN light scattering instrument, 100 µg sample
# [9] = biological target: human eIF4GII residues 551–745 (human) (UniProt O43432); assay: ITC; MicroCal ITC microcalorimeter; the ligand titrated into the protein in the cell (cell about 10× lower than titrant); 25°C; 20 mM Hepes/KOH pH 7.4, 150 mM KCl, 1 mM EDTA; three experiments; remark: listed apart in the source
# [10] = biological target: T1, recombinant full-length murine eIF4E (murine, UniProt P63073 1-217); assay: as above; conditions: both partners purified
# T1 sequence (P63073 whole entry): as above
# [11] = biological target: T1, recombinant full-length murine eIF4E; assay: SEC-MALS; Superdex 200 10/300 in assay buffer, miniDAWN light scattering instrument, 100 µg sample; conditions: both partners purified
molecule,measurement,setting,value
CVB4 2A^proC110A with a N-terminal extension of eight VP1 residues (enzyme),Kd,[1],19 µM
same,Kd,[2],19 µM
same,stoichiometry N,[3],1
HRV2 2A^pro bearing the mutations C106S and C138S (enzyme),stoichiometry N,[4],1
HRV2 2A^proC106S (enzyme),stoichiometry N,[5],1
same,Kd,[6],8 µM
same,Kd,[7],12 µM
same,Kd,[1],75 µM
same,Kd,[2],5.1 µM
same,stoichiometry N,[8],2
same,Kd,[9],86 µM
B1,Kd,[10],0.042 µM
same,stoichiometry N,[11],1
